Assays:
Conditions in all cases: both partners purified
[1] = biological target: T1, Amyloid beta 1–42 (Aβ1–42) (UniProt P05067 672-713); assay: ELISA; CAP37, neutrophil elastase or cathepsin G (0.5 μg/well) or BSA (1000 μg/well) coated; Aβ1-42 0–111 nM in PBST with 0.1% BSA and protease inhibitor cocktail; bound Aβ1-42 detected with anti-APP/Aβ; BSA subtracted as background for KD
T1 construct: amyloid beta 1-42, the cut product of amyloid precursor protein (APP); numbers count on: the Aβ peptide; source: bought: Bachem (95.2% pure by HPLC), dissolved in 1 mM sodium hydroxide

[2] = biological target: T2, Recombinant human RAGE Fc chimera (human, UniProt Q15109 23-342); assay: ELISA; CAP37, neutrophil elastase, cathepsin G or Aβ1-42 (0.5 μg/well) or BSA (1000 μg/well) coated on Maxisorp plates in PBS pH 7.4; RAGE Fc chimera 0–3.3 nM in PBST with 0.1% BSA, 37°C, 70 min; bound RAGE detected with goat anti-RAGE; BSA subtracted as background for KD
T2 construct: receptor for advanced glycation end products (RAGE), human, recombinant, fused to Fc; No catalogue number printed; also called receptor for advanced glycation end products; AGER; source: bought: R&D Systems

[3] = biological target: T2, Recombinant human RAGE Fc chimera; assay: ELISA; competition: RAGE Fc chimera coated (0.5 μg/well, 83.3 nM); Aβ1-42 (11 nM) added at the same time as CAP37 (0–2.5 μM) or neutrophil elastase (0–0.5 μM); no protease inhibitors; bound Aβ1-42 detected with anti-APP/Aβ

T2 sequence (Q15109 23-342, change not shown): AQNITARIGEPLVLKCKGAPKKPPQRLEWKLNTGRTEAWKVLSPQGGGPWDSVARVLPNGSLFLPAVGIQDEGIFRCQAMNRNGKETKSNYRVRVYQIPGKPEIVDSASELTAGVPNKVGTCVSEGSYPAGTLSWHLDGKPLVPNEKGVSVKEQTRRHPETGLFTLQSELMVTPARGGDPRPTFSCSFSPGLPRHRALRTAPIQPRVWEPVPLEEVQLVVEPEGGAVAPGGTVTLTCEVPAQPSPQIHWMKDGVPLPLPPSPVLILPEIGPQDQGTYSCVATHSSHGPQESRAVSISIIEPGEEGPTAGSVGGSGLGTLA

B1: cathepsin G (enzyme, human, UniProt P08311 21-244, looked up)
chain: IIGGRESRPHSRPYMAYLQIQSPAGQSRCGGFLVREDFVLTAAHCWGSNINVTLGAHNIQRRENTQQHITARRAIRHPQYNQRTIQNDIMLLQLSRRVRRNRNVNPVALPRAQEGLRPGTLCTVAGWGRVSMRRGTDTLREVQLRVQRDRQCLRIFGSYDPRRQICVGDRRERKAAFKGDSGGPLLCNNVAHGIVSYGKSSGVPPEVFTRVSSFLPWIRTTMRS
notes: cathepsin G (CTSG), human, purified from neutrophils, >95% pure by SDS-PAGE; also called CG; CTSG; source: purified from human neutrophils; bought: Athens Research & Technology
With B1 the Kd [1] was 20.7 nM and the Kd [2] was 0.45 nM.

B2: neutrophil elastase (enzyme)
chain: IVGGRRARPHAWPFMVSLQLRGGHFCGATLIAPNFVMSAAHCVANVNVRAVRVVLGAHNLSRREPTRQVFAVQRIFENGYDPVNLLNDIVILQLNGSATINANVQVAQLPAQGRRLGNGVQCLAMGWGLLGRNRGIASVLQELNVTVVTSLCRRSNVCTLVRGRQAGVCFGDSGSPLVCNGLIHGIASFVRGGCASGLYPDAFAPVAQFVNWIDSIIQ
modifications: native N-glycosylated, disulfide-bonded active enzyme from human neutrophils. Limits are not printed: the signal and activation dipeptide are removed (starts at 30), and the C-terminal propeptide is …
B2 was tested, and the Kd [2] was 3.25 nM.

B3: cationic antimicrobial protein of 37kDa (CAP37) (natural protein, human, UniProt P20160 27-251, looked up)
chain: IVGGRKARPRQFPFLASIQNQGRHFCGGALIHARFVMTAASCFQSQNPGVSTVVLGAYDLRRRERQSRQTFSISSMSENGYDPQQNLNDLMLLQLDREANLTSSVTILPLPLQNATVEAGTRCQVAGWGSQRSGGRLSRFPRFVNVTVTPEDQCRPNNVCTGVLTRRGGICNGDGGTPLVCEGLAHGVASFSLGPCGRGPDFFTRVALFRDWIDGVLNNPGPGPA
notes: cationic antimicrobial protein of 37kDa (CAP37, encoded by AZU1), human, purified from neutrophils, >95% pure by SDS-PAGE; also called AZU1; source: purified from human neutrophils; bought: Athens Research & Technology
For B3, the IC50 [3] was 1280 nM, the Kd [1] was 37.9 nM and the Kd [2] was 1.26 nM.
